Assay results from paper PMC5861428.
pKd: −log10 of the molar value.

Key:
[1] = tested on: Fab BL3-6 S97N (synthetic), PDB:6B14_1+PDB:6B14_2; assay: filter binding
[2] = tested on: Fab clone 3 (Fab 3) (synthetic), PDB:6B14_1+PDB:6B3K_2; assay: filter binding
[3] = tested on: Fab clone 13 (synthetic), PDB:6B14_1+PDB:6B3K_2; assay: filter binding
[4] = tested on: Fab clone 5 (synthetic), PDB:6B14_1+PDB:6B3K_2; assay: filter binding
[5] = tested on: Fab clone 1 (synthetic), PDB:6B14_1+PDB:6B3K_2; assay: filter binding
[6] = tested on: Fab clone 10 (Fab 10) (synthetic), PDB:6B14_1+PDB:6B3K_2; assay: filter binding
[7] = tested on: Fab clone 18 (synthetic), PDB:6B14_1+PDB:6B3K_2; assay: filter binding
[8] = tested on: Fab clone 12 (synthetic), PDB:6B14_1+PDB:6B3K_2; assay: filter binding
[9] = tested on: Fab clone 4 (synthetic), PDB:6B14_1+PDB:6B3K_2; assay: filter binding
[10] = tested on: Fab clone 6 (synthetic), PDB:6B14_1+PDB:6B3K_2; assay: filter binding
[11] = tested on: Fab clone 15 (synthetic), PDB:6B14_1+PDB:6B3K_2; assay: filter binding
[12] = tested on: Fab clone 11 (synthetic), PDB:6B14_1+PDB:6B3K_2; assay: filter binding
[13] = tested on: Fab clone 9 (synthetic), PDB:6B14_1+PDB:6B3K_2; assay: filter binding
[14] = tested on: Fab clone 2 (synthetic), PDB:6B14_1+PDB:6B3K_2; assay: filter binding
[15] = tested on: Fab clone 17 (synthetic), PDB:6B14_1+PDB:6B3K_2; assay: filter binding
[16] = tested on: Fab BL3-6 (synthetic (humanized Fab4D5 framework phage library)), PDB:6B14_1+PDB:6B3K_2; assay: hydroxyl-radical footprinting
[17] = tested on: Fab clone 14 (synthetic), PDB:6B14_1+PDB:6B3K_2; assay: filter binding
[18] = tested on: Fab BL3-6 (synthetic (humanized Fab4D5 framework phage library)), PDB:6B14_1+PDB:6B3K_2; assay: filter binding

In the case of “UGCGACCAUGGUGAGACCCGCCAUGGUCGC [N9RNA1 HP (AM HP)]”, the pKd [1] was 8.05, the pKd [2] was 8.05 and the pKd [3] was 7.96. For the same sequence, the pKd [4] was 8.10, the pKd [5] was 7.96 and the pKd [6] was 8.05. For the same sequence, the pKd [7] was 8.05, the pKd [8] was 8.15 and the pKd [9] was 7.96. It also gave a pKd [10] of 8.15, a pKd [11] of 8.00 and a pKd [12] of 8.05. For the same sequence, the pKd [13] was 7.89, the pKd [14] was 8.00 and the pKd [15] was 8.10. The pKd [16] was 7.52.

“GUCCAGUAGGAACACUAUACUACUGGAUAAUCAAAGACAAAUCUGCCCGAAGGGCUUGAGAACAUCGAAACACGAUGCAGAGGUGGCAGCCUCCGGUGGGUUAAAACCCAACGUUCUCAACAAUAGUGA [WT-BLP]” gave a pKd [1] of 8.30, a pKd [2] of 7.55 and a pKd [3] of 7.44. It also gave a pKd [4] of 7.70, a pKd [5] of 7.59 and a pKd [17] of 7.35. For the same sequence, the pKd [6] was 7.52, the pKd [7] was 7.29 and the pKd [8] was 7.43. For the same sequence, the pKd [9] was 7.54, the pKd [10] was 7.27 and the pKd [11] was 7.47. The pKd [12] was 7.43, the pKd [13] was 7.18 and the pKd [14] was 7.30. It also gave a pKd [18] of 6.92 and a pKd [15] of 7.38.

Work on “GGCGACCAUGGAAACACCAUGGUCGC [WT-RNA HP (WT BL3-6 HP)]” yielded a pKd [1] of 7.89, a pKd [2] of 7.60 and a pKd [3] of 7.60. For the same sequence, the pKd [4] was 7.55, the pKd [5] was 7.54 and the pKd [17] was 7.24. The pKd [6] was 7.55, the pKd [7] was 7.66 and the pKd [8] was 7.77. The pKd [9] was 7.55, the pKd [10] was 7.28 and the pKd [11] was 7.77. It also gave a pKd [12] of 7.89, a pKd [13] of 7.17 and a pKd [15] of 7.68.
